Substitutions are numbered along the chain they refer to. Each block holds one binder with its values, some of them ahead of it.
Experiments:
GST-hMSTN 121-220aa = biological target: T1, GST-hMSTN 121-220aa (human, UniProt A1C2U3 121-220 (Pongo pygmaeus entry)); experiment: Western blot on GST tagged fragments
T1 construct: As GST-hMSTN 1-100aa; also called seventh fragment; not shown: GST tag from the pGEX4.1 vector
T1 sequence: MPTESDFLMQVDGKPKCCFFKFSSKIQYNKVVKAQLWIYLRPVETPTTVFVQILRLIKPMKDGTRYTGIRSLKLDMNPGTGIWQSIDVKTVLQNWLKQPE
Excerpt: (§1) Fragments of the N-terminal propeptide coding region of human latent myostatin were cloned into a pGEX4.1 vector so as to produce GST tagged propeptide fragments of 100 amino acid each, with 80 amino acid overlap (FIG. 22A). Protein expression was induced in transformed BL21 competent cells with Overnight Express Autoinduction System (Merck Millipore) and protein was extracted using the BUGBUSTER® protein extraction reagent (Novagen).

GST-hMSTN 141-241aa = biological target: T2, GST-hMSTN 141-241aa (human, UniProt A1C2U3 141-241 (Pongo pygmaeus entry)); experiment: Western blot on GST tagged fragments
T2 construct: As GST-hMSTN 1-100aa; also called eighth fragment; not shown: GST tag from the pGEX4.1 vector
T2 sequence: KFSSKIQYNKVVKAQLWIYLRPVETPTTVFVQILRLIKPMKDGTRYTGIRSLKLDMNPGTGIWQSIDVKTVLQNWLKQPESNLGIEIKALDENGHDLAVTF
Excerpt: as §1

GST-hMSTN 81-180aa = biological target: T3, GST-hMSTN 81-180aa (human, UniProt A1C2U3 81-180 (Pongo pygmaeus entry)); experiment: Western blot on GST tagged fragments
T3 construct: As GST-hMSTN 1-100aa; also called fifth fragment; not shown: GST tag from the pGEX4.1 vector
T3 sequence: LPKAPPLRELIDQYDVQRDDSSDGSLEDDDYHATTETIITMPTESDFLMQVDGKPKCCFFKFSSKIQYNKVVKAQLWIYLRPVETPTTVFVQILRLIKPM
Excerpt: as §1

GST-hMSTN 61-160aa = biological target: T4, GST-hMSTN 61-160aa (human, UniProt O14793 61-160); experiment: Western blot on GST tagged fragments
T4 construct: As GST-hMSTN 1-100aa; also called fourth fragment; not shown: GST tag from the pGEX4.1 vector
T4 sequence: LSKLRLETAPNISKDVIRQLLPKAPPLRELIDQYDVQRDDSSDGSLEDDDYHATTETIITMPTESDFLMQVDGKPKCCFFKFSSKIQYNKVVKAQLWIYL
Excerpt: as §1

GST-hMSTN 101-200aa = biological target: T5, GST-hMSTN 101-200aa (human, UniProt A1C2U3 101-200 (Pongo pygmaeus entry)); experiment: Western blot on GST tagged fragments
T5 construct: As GST-hMSTN 1-100aa; also called sixth fragment; not shown: GST tag from the pGEX4.1 vector
T5 sequence: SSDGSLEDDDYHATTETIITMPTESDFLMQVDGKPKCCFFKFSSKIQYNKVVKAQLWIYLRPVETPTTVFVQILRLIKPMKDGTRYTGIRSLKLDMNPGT
Excerpt: as §1

Human latent myostatin [1] = biological target: T6, Human latent myostatin (human, UniProt O14793 25-266; O14793 267-375); experiment: SPR (BIACORE T200), 37 C, pH5.8, avidity condition (capture 185 RU), 1:1 fit; pH 5.8
T6 construct: Biotinylated in the ELISAs; also called human myostatin latent form
T6 sequence 1: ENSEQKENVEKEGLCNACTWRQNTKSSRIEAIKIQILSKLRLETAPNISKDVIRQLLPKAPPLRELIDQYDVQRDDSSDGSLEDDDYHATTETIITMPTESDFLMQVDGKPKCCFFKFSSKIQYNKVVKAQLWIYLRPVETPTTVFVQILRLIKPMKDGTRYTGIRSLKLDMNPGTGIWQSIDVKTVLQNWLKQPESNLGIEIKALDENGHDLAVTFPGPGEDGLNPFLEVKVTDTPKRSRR
T6 sequence 2: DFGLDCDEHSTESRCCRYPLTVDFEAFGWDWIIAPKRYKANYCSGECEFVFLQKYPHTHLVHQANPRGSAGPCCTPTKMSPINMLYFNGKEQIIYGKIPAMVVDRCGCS
Experimental: (§2) The kinetic parameters of anti-latent myostatin antibodies against human, cynomolgus monkey (cyno), and mouse latent myostatin were assessed at 37° C. at pH7.4 using a BIACORE® T200 instrument (GE Healthcare). ProA/G (Pierce) was immobilized onto all flow cells of a CM4 chip using amine coupling kit (GE Healthcare). Anti-latent myostatin antibody and analytes were prepared in ACES pH7.4 (20 mM ACES, 150 mM NaCl, 1.2 mM CaCl₂), 0.05% TWEEN® 20, 0.005% NaN₃). […] Then human, cyno, or mouse latent myostatin was injected at 3.125 to 50 nM prepared by two-fold serial dilution, followed by dissociation. The sensor surface was regenerated with 25 mM NaOH. Kinetic parameters were determined by processing and fitting the data to a 1:1 binding model using BIACORE® T200 Evaluation software, version 2.0 (GE Healthcare).
(§3) All experimental settings were the same as in Example 7, except that measurements were also performed in ACES pH5.8 buffer in addition to ACES pH7.4 condition. Some antibodies were only measured against human latent myostatin. Antibody capture level was aimed at 185 RU and 18.5 RU, for avidity and affinity assay, respectively. Kinetic parameters were determined using 1:1 Binding fitting using BIACORE® T200 Evaluation software, version 2.0 (GE Healthcare).

[2] = biological target: T7, Cynomolgus monkey latent myostatin (cynomolgus monkey, UniProt Q95J86 25-266; Q95J86 267-375); experiment: as above
T7 construct: signal 1-24; also called Cyno latent myostatin
T7 sequence 1: T6 sequence 1 with V52A
T7 sequence 2: T6 sequence 2
Experimental: as §2, §3

Mouse latent myostatin [3] = biological target: T8, Mouse latent myostatin (mouse, UniProt O08689 26-267; O08689 268-376); experiment: as above
T8 construct: signal 1-24
T8 sequence 1: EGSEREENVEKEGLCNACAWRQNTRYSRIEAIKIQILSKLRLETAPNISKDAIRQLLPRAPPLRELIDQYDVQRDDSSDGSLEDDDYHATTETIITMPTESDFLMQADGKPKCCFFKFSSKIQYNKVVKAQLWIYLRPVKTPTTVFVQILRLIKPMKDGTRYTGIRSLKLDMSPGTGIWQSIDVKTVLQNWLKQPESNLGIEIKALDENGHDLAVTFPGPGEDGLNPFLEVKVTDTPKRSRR
T8 sequence 2: T6 sequence 2
Experimental: as §2, §3

Human latent myostatin [4] = biological target: T6, Human latent myostatin; experiment: SPR (BIACORE T200), 37 C, pH7.4, avidity condition (capture 185 RU), 1:1 fit; pH 7.4
Experimental: as §2, §3

[5] = biological target: T7, Cynomolgus monkey latent myostatin; experiment: as above
Experimental: as §2, §3

Mouse latent myostatin [6] = biological target: T8, Mouse latent myostatin; experiment: as above
Experimental: as §2, §3

Human latent myostatin [7] = biological target: T6, Human latent myostatin; experiment: SPR (BIACORE T200), 37 C, pH7.4, 1:1 fit; title prints avidity, by the text the affinity condition (capture 18.5 RU)
Experimental: as §2, §3

[8] = biological target: T7, Cynomolgus monkey latent myostatin; experiment: as above
Experimental: as §2, §3

Mouse latent myostatin [9] = biological target: T8, Mouse latent myostatin; experiment: as above
Experimental: as §2, §3

[10] = biological target: T9, human FcγRIIb constitutively expressed on MDCK cells (human, UniProt P31994 43-310); experiment: cell-based or functional assay
T9 sequence (looked up): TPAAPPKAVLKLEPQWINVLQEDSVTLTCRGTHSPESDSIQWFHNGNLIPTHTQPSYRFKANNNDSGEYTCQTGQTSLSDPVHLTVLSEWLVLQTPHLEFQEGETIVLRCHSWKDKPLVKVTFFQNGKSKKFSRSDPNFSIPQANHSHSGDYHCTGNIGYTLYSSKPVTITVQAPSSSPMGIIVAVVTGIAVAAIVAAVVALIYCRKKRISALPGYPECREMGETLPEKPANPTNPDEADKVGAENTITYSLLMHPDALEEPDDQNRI

binding result (GST-hMSTN 121-220aa): no binding
binding result (GST-hMSTN 141-241aa): no binding
binding result (GST-hMSTN 81-180aa): no binding
binding result (GST-hMSTN 61-160aa): no binding
binding result (GST-hMSTN 101-200aa): no binding
B1: MST1538 (antibody, human IgG1, kappa, V domains shown)
VH: QSLEESGGGLVKPGGTLTLTCKASGIDFSSYYYMCWVRQAPGKGLEWIACIYAGISGSTYYASWAKGRFTISKTSSTTVTLQMTSLTAADTATYFCARDPYHFDYGSLWGPGTLVTVSS
VL: ALVMTQTPASVSAAVGGTVTINCQASQSVYGGNELSWYQQEPGQPPKLLIYSASKLASGVPSRFKGSGSGTQFTLTISGVQCDDAAAYYCAGYRTYSDDDNAFGGGTKVEIKR

binding result (GST-hMSTN 121-220aa): no binding
binding result (GST-hMSTN 141-241aa): no binding
binding result (GST-hMSTN 101-200aa): no binding
B2: MST1032 (as tested in Example 26) (antibody, V domains shown)
VH: QSLEESGGRLVTPGGSLTVTCRVSGIDLSSYDISWVRQAPGKGLEWIGIISYAGSTYYASWAKGRFTISKTSTTVDLKMTSLTTEDTATYFCARGVPAYSTGGDLWGPGTLVTVSS
VL: AQVLTQTASSVSAAVGGTVTINCQSSQSVYDNNWLSWFQQKPGQPPKLLIYWASTLASGVPSRFKGSGSGTQFTLTISDLECDDAATYYCAGGYGGGLYAFGGGTKVEIK

Kd (Human latent myostatin [1]): 19.9 nM
koff (Human latent myostatin [1]): 0.0242 s⁻¹
kon (Human latent myostatin [1]): 1.22e+06 M⁻¹ s⁻¹
Kd [2]: 8.9 nM
koff [2]: 0.0068 s⁻¹
kon [2]: 764000 M⁻¹ s⁻¹
Kd (Mouse latent myostatin [3]): 6.15 nM
koff (Mouse latent myostatin [3]): 0.00625 s⁻¹
kon (Mouse latent myostatin [3]): 1.02e+06 M⁻¹ s⁻¹
Kd (Human latent myostatin [4]): 0.17 nM
koff (Human latent myostatin [4]): 0.000216 s⁻¹
kon (Human latent myostatin [4]): 1.27e+06 M⁻¹ s⁻¹
Kd [5]: 0.165 nM
koff [5]: 0.000197 s⁻¹
kon [5]: 1.19e+06 M⁻¹ s⁻¹
Kd (Mouse latent myostatin [6]): 0.149 nM
koff (Mouse latent myostatin [6]): 0.000217 s⁻¹
kon (Mouse latent myostatin [6]): 1.45e+06 M⁻¹ s⁻¹
Kd (Human latent myostatin [7]): 0.788 nM
koff (Human latent myostatin [7]): 0.00129 s⁻¹
kon (Human latent myostatin [7]): 1.64e+06 M⁻¹ s⁻¹
Kd [8]: 0.954 nM
koff [8]: 0.0011 s⁻¹
kon [8]: 1.15e+06 M⁻¹ s⁻¹
Kd (Mouse latent myostatin [9]): 0.713 nM
koff (Mouse latent myostatin [9]): 0.00107 s⁻¹
kon (Mouse latent myostatin [9]): 1.5e+06 M⁻¹ s⁻¹
B3: MS_M103205H714-SG1/M103202L861-SK1 (antibody, human IgG1, kappa, V domains shown)
VH: QVTLKESGPVLVKPTETLTLTCTVSGIDLSHTDISWVRQAPGKGLEWVGIISYAGSTYYASWAKGRLTISKDTSKNQVVLTMTNMDPVDTATYYCARGVPAYSHGGDLWGQGTLVTVSS
VL: DIVMTQSPATLSLSPGERATLSCTSSQSVYHNNWLSWFQQKPGQPPKLLIYWASTLAYGVPSRFSGSGSGTDFTLTISSLQPEDAATYYCAGGYGGGRYAFGQGTKVEIKR
notes: also called MS1032LO01-SG1; MSLO-01

cell imaging: fluorescence intensity of labelled human latent myostatin taken up as antigen-antibody complex into MDCK cells expressing human FcγRIIb, relative to SG1 [10]: 7.5 fold
B4: MS103240H795-TT14/M103202L1045-SK1 (antibody, human IgG1, kappa)
heavy: QVQLVESGGGLVQPGGSLRLSCAVSGIDLSHDDISWVRQAPGKGLEWVSIISYAGSTYYASWAKGRLTISKDTSKNQVVLTMTNMDPVDTATYYCARGVPAYSHGGDLWGQGTLVTVSSASTKGPSVFPLAPSSKSTSGGTAALGCLVKDYFPEPVTVSWNSGALTSGVHTFPAVLQSSGLYSLSSVVTVPSSSLGTQTYICNVNHKPSNTKVDKKVEPKSCDKTHTCPPCPAPEYLGGDSVFLFPPKPKDVLMISRTPEVTCVVIDVSHEDPEVKFNWYVDGVEVHNAKTKPREEQYNSTYRVVSVLPVLHQDWLNGKEYKCKVSNKALPKPIEKTISKAKGQPREPQVYTLPPSREEMTKNQVSLTCLVKGFYPSDIAVEWESNGQPENNYKTTPPVLDSDGSFFLYSKLTVDKSRWQQGNVFSCSVMHEALHNHYTQKSLSLSP
light: DIVMTQSPATLSLSPGERATLSCTTSQSVYHENWLSWFQQKPGQPPKLLIYWASTLAYGVPSRFSGSGSGTDFTLTISSLQPEDAATYYCAGGYGGGRYAFGQGTKVEIKRTVAAPSVFIFPPSDEQLKSGTASVVCLLNNFYPREAKVQWKVDNALQSGNSQESVTEQDSKDSTYSLSSTLTLSKADYEKHKVYACEVTHQGLSSPVTKSFNRGEC

cell imaging: uptake of labelled antigen-antibody complex into MDCK cells expressing human FcγRIIb, relative to SG1 [10]: 36 fold
B5: MS103240H795-TT33/M103202L1045-SK1 (antibody, human IgG1, kappa)
heavy: B4 heavy with Q313R, D415K
light: B4 light

From patent US20200317768A1 (published 2020)
